In experiment [1] the target is αvβ3 integrin on human cells (human) (UniProt P06756). Put plainly: 125-I antibody saturation binding on A375S2 cells (n = 6).
The target is the same in experiment [2]. In words: 125-I antibody saturation binding on M21 cells (n = 7).
Experiment [3] shares this target. Put plainly: 125-I antibody saturation binding on M21 cells (n = 3).
The target in experiment [4] is human αVβ3 integrin, purified (human) (UniProt P06756). In words: ELISA saturation binding on alphaVbeta3 coated plate, non-linear regression (n = 6).
In experiment [5] the target is αvβ3 integrin on human cells (human) (UniProt P06756). Put plainly: cell-based or functional assay.
Experiment [6] has the same target. Put plainly: 125-I antibody saturation binding on A375S2 cells (n = 3).
The target of experiment [7] is human αVβ3 integrin, purified (human) (UniProt P06756). In words: ELISA on αVβ3 coated plates.

Chain of αvβ3 integrin on human cells (human) (P06756 31-1048, chain 1 of 2): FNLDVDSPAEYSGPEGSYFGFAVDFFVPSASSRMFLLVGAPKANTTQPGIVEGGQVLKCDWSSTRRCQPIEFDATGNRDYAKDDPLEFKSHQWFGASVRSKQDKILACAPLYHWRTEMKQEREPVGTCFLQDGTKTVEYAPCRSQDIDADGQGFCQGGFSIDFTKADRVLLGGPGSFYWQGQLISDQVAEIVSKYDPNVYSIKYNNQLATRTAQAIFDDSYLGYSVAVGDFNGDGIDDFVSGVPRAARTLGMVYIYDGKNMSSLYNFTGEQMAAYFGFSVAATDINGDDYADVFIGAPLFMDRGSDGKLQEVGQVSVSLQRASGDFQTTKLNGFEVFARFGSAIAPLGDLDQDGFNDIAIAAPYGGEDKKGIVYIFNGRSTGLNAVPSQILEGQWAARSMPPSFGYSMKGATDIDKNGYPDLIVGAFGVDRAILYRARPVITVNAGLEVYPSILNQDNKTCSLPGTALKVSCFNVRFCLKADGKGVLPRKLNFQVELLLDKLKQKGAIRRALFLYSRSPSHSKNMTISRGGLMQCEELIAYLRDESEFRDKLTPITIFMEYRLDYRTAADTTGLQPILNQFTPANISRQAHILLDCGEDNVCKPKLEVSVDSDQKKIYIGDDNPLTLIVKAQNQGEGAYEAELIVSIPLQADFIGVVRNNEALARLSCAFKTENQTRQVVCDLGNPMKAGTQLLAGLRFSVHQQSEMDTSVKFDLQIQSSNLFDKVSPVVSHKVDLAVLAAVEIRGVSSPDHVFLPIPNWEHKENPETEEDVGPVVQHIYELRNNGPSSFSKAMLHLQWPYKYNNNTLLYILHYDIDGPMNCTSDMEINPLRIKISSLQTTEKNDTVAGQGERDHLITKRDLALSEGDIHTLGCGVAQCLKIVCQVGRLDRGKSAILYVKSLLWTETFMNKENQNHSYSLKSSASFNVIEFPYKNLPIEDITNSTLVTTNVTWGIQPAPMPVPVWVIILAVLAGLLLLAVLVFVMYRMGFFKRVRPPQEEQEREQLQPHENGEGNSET
Chain of αvβ3 integrin on human cells (human) (P05106 27-788, chain 2 of 2, further chain): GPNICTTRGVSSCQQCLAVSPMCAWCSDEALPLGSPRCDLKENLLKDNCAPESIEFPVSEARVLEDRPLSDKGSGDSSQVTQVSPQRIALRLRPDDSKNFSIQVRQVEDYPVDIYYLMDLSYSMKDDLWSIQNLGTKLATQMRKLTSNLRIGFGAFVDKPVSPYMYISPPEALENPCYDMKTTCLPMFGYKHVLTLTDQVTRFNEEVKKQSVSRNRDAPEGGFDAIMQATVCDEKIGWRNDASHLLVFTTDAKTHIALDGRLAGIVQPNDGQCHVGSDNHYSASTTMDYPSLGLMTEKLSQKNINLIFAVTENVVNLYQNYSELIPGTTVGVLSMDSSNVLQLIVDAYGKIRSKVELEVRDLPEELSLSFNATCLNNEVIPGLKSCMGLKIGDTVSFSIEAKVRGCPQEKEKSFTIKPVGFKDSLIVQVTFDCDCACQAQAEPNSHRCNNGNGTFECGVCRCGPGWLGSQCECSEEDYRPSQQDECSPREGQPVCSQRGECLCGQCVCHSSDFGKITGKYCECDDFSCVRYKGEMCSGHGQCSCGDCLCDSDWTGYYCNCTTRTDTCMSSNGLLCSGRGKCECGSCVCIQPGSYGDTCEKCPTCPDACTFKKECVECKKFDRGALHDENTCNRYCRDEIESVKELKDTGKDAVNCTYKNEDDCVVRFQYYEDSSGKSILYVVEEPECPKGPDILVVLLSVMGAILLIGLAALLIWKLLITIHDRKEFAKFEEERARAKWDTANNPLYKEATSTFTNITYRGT
Chain of human αVβ3 integrin, purified (human) (P06756 31-1048, form in doubt, chain 1 of 2): as the sequence (P06756 31-1048, chain 1 of 2) above
Chain of human αVβ3 integrin, purified (human) (P05106 27-788, form in doubt, chain 2 of 2, further chain): as the sequence (P05106 27-788, chain 2 of 2, further chain) above

B1: ReoPro (c7E3 Fab) (Fab, INN chains, looked up, V domains shown)
VH: EVQLQQSGTVLARPGASVKMSCEASGYTFTNYWMHWVKQRPGQGLEWIGAIYPGNSDTSYIQKFKGKAKLTAVTSTTSVYMELSSLTNEDSAVYYCTLYDGYYVFAYWGQGTLVTVSA
VL: EIVLTQSPVTLSVTPGDSVSLSCRASRDISNNLHWFQQTSHESPRLLIKYASQSMSGIPSRFSGSGSGTDFTLSINSVETEDFGMYFCQQTNSWPYTFGGGTKLEIK
modifications: Fab 125I label
Consider B1, for which the Receptors per cell (receptors/cell) in experiment [1] turned out to be 370000. In addition, in experiment [2], the Receptors per cell (receptors/cell) is 660000. This molecule had a Kd in experiment [3] of 0.01 µM. The Kd in experiment [4] is 0.00025 µM. In experiment [5], this molecule registered an A375S.2 cell adhesion to fibrin, % of no-antibody control (10 µg/ml) of 12.9%; an A375S.2 cell adhesion to fibrinogen, % of no-antibody control (10 µg/ml) of 6.5%; an A375S.2 cell adhesion to fibronectin, % of no-antibody control (10 µg/ml) of 104%; an A375S.2 cell adhesion to gelatin, % of no-antibody control (10 µg/ml) of 6%. In experiment [5], this molecule showed an A375S.2 cell adhesion to type I collagen, % of no-antibody control (10 µg/ml) of 93.1%; an A375S.2 cell adhesion to vitronectin, % of no-antibody control (10 µg/ml) of 38.1%; an HUVEC adhesion to fibrin, % of no-antibody control (10 µg/ml) of 35.8%; an HUVEC adhesion to fibrinogen, % of no-antibody control (10 µg/ml) of 8.7%. Besides, in experiment [5], the HUVEC adhesion to fibronectin, % of no-antibody control (10 µg/ml) came to 96.3%; the HUVEC adhesion to gelatin, % of no-antibody control (10 µg/ml) is 2.5%; the HUVEC adhesion to type I collagen, % of no-antibody control (10 µg/ml) was 99.6%; the HUVEC adhesion to vitronectin, % of no-antibody control (10 µg/ml) turned out to be 54.9%. Also, the Kd in experiment [6] was found to be 0.022 µM.

B2: c7E3 IgG (antibody, INN chains, looked up, V domains shown)
VH: B1 VH
VL: B1 VL
modifications: IgG
In the case of B2, in experiment [7], the EC50 was 0.07 mg/L.

(Values after patent US20040185507A1.)
